Assay results: patent US20120225079A1

Target: cleaved human IgG (human IgG cleaved with the endopeptidases IdeE and IdeE2) (human)
Test: cell-based or functional assay

recombinant mature EndoSe of Streptococcus equi subsp. equi (lacking the N-terminal signal sequence) (enzyme)
lowest EndoSe concentration at which activity was observed (SDS-PAGE): 2.6 µg/mL
